Data as given in patent US20110318808.

Assays:
[1] = target: T1, fluorophore/quencher substrate peptide DABCYL-YGENVTFQGSK-EDANS
T1 chain: YGENVTFQGSK

[2] = target: T2, fusion substrate protein with the ENVTFQG consensus recognition sequence
T2 chain: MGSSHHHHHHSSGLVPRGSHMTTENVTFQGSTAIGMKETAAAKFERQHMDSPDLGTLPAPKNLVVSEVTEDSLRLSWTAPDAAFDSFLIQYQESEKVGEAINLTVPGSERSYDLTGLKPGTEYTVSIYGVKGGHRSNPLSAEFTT

[3] = target: T3, fusion substrate protein with the PVA NIa protease consensus sequence with a P2' proline (ENVTFQGP)
T3 chain: ENVTFQGP

[4] = target: T4, fusion substrate protein with the TEV NIa protease recognition sequence (ENLYGQGS)
T4 chain: ENLYGQGS

[5] = target: T5, fusion substrate protein with the TVMV NIa protease recognition sequence (ETVRFQGS)
T5 chain: ETVRFQGS

[6] = target: T6, synthetic peptide SEAVYTQGSS (NIa/NIb junction recognition sequence EAVYTQG)
T6 chain: SEAVYTQGSS

[7] = target: T7, synthetic peptide SEMVTNQSSS (recognition sequence EMVTNQS)
T7 chain: SEMVTNQSSS

[8] = target: T8, synthetic peptide SENVTFQGSS (consensus recognition sequence ENVTFQG)
T8 chain: SENVTFQGSS

[9] = target: T9, synthetic peptide SENVTKQLSS (recognition sequence ENVTKQL)
T9 chain: SENVTKQLSS

[10] = target: T10, synthetic peptide SEVVLFQASS (P3/6K1 junction recognition sequence EVVLFQA)
T10 chain: SEVVLFQASS

B1: potato virus A (PVA) NIa protease, wild type (protein)
chain: STSMFRGVRDYNPISSVICQLENESEGRTTQLFGLGFGPFIITNQHLFVRNNGSLTVRSQMGVFKVNSTVTLQMRPVEGRDVLIIKMPKDFPPFPQRLKFRQPTHSEKVCLILTNFQQKSSSSMVSETSHIIPKENTYFWKHWISTKEGHCGSPIVSTTDGAILGIHSLSNMTNTSNYFACFPKGFTETYLATESAHEWVKGWKFNASNVCWGSFHLQDSKPTKEFKTVKLV
- Km (uM), DTT + [1]: 178 µM
- Relative Kcat/Km, DTT + [1]: 100
- Vmax (RFU/min), DTT + [1]: 78500 RFU/min
- proteolytic cleavage of the substrate monitored by SDS-PAGE [2]: cleaved the substrate to completion
- Cleaved by NIa (fusion substrate protein) [3]: No
- Cleaved by NIa (fusion substrate protein) [4]: No
- Cleaved by NIa (fusion substrate protein) [5]: Yes
- rate of cleavage of fusion substrate [5]: able to cleave the fusion substrate with the TVMV NIa protease recognition sequence, although at a much lower rate than the PVA NIa protease consensus sequence
- Cleaved by NIa (synthetic peptide, RP-HPLC and LC-MS) [6]: Yes
- Cleaved by NIa (synthetic peptide, RP-HPLC and LC-MS) [7]: No
- Cleaved by NIa (synthetic peptide, RP-HPLC and LC-MS) [8]: Yes
- Cleaved by NIa (synthetic peptide, RP-HPLC and LC-MS) [9]: No
- Cleaved by NIa (synthetic peptide, RP-HPLC and LC-MS) [10]: Yes
